{"source": "patent US12397036B2", "about": "“Peptide exchange protein” (Cambridge Enterprise Limited, priority 2018, dated 2025)", "molecules": {"B1": {"name": "soluble TAPBPR^WT: secreted His-tagged luminal domain of human TAPBPR, lacking transmembrane domain and cytoplasmic tail; SEQ ID NO: 2 (protein)", "chain": "KPHPAEGQWRAVDVVLDCFLVKDGAHRGALASSEDRARASLVLKQVPVLDDGSLEDFTDFQGGTLAQDDPPIIFEASVDLVQIPQAEALLHADCSGKEVTCEISRYFLQMTETTVKTAAWFMANVQVSGGGPSISLVMKTPRVAKNEVLWHPTLNLPLSPQGTVRTAVEFQVMTQTQSLSFLLGSSASLDCGFSMAPGLDLISVEWRLQHKGRGQLVYSWTAGQGQAVRKGATLEPAQLGMARDASLTLPGLTIQDEGTYICQITTSLYRAQQIIQLNIQASPKVRLSLANEALLPTLICDIAGYYPLDVVVTWTREELGGSPAQVSGASFSSLRQSVAGTYSISSSLTAEPGSAGATYTCQVTHISLEEPLGASTQVVPPERR", "modifications": "His tag; TAPBPR luminal domain (mature sequence without 21 aa leader sequence)"}}, "key": {"surface MHC I molecules": {"target": "T1, surface MHC I molecules (Homo sapiens, UniProt P04439, A269V/D140Y/D185E/E176V/E277Q/E87N/F33Y/G231S/I121R/I166T/I218V/L180W/L300P/L318F/N151K/P208A/P217A/Q86R/R138H/R169H/S129P/T345S/V36M)", "T1 construct": "HLA-A68 (MHC class I) expressed on HeLa; endogenous in cells; host or cells: HeLaM and derivatives (TAPBPR-KO with or without TAPBPR/tapasin constructs, +Her2, Her2-KO, +PDL1, pD-GFP); in some arms HeLaM-HLA-ABC-KO re-expressing HLA-A*68:02", "assay": "TAPBPR remaining on cell surface after peptide binding (PeTe4 staining)", "type": "cell-based", "conditions": "100 nM soluble TAPBPR^WT, then 10 nM peptide 15 min", "excerpt": "Subsequently, the amount of TAPBPR remaining on the cell surface was detected by staining with the TAPBPR specific mAb PeTe4."}, "HLA-A*02:01": {"target": "T2, HLA-A*02:01 (Homo sapiens, UniProt P04439, D140Y/D185E/D98H/E176V/E277Q/G131W/G231S/I119V/I121R/I166T/I218V/L300P/L318F/N151K/N90K/P208A/P217A/Q86G/Q94H/R138H/R169H/T345S)", "T2 construct": "expressed in transfected cells; host or cells: HeLaM-HLA-ABC-KO", "type": "cell-based", "conditions": "ETV* (HLA-A*68:02) and SRY* (HLA-B*27) controls", "experimental": "(g) Dose response curves of IFN-γ treated HeLaM and HeLaM-HLA-ABC^KO cells treated −/+100 nM TAPBPR with increasing concentrations of ETVSK*QSNV for 15 min at 37° C. Line graphs show MFI−/+s.e.m from three independent experiments. […] (h) Histograms of the typical fluorescent peptide binding observed using flow cytometry. (i) Bar graphs showing the MFI of fluorescent peptide binding to HeLaM HLA-ABC^KO+A2−/+s.e.m from two independent experiments with duplicates. ***P≤0.001, ****P≤0.0001, n/s not significant, using unpaired two-tailed t-test.\n(§1) Target cell lines were seeded at 25,000-30,000 cells/well in 12-well plates and stimulated with IFN-γ. Following the stimulation period, the cells were washed 3 times with 1×PBS and incubated with 300 μL pre-warmed opti-MEM (Thermo Fisher Scientific, UK). In case the peptide binding was done in the presence of recombinant TAPBPR, the cells were then treated with or without recombinant TAPBPR (100 nM for HLA-A*68:02 or 1 μM for HLA-A*02:01). After 15 min, the desired TAMRA-labelled peptide was added to the cells and incubated at 37° C. (15 min for HLA-A*68:02 or 60 min for HLA-A*02:01). In case the peptide binding was facilitated by over-expressed TAPBPR, the labelled peptide was directly added to the cells, without using recombinant TAPBPR. […] The level of bound peptide/cell was determined by flow cytometry, using the YelFL1 channel (Cytek)."}, "[1]": {"target": "T3, HLA-A*02:01 naturally expressed on MCF-7 (Homo sapiens, UniProt P04439, D140Y/D185E/D98H/E176V/E277Q/G131W/G231S/I119V/I121R/I166T/I218V/L300P/L318F/N151K/N90K/P208A/P217A/Q86G/Q94H/R138H/R169H/T345S)", "T3 construct": "onto HLA-A*02:01 naturally expressed on MCF-7, a breast cancer cell line; endogenous in cells", "assay": "Fluorescent peptide loading onto MCF-7 cells by soluble TAPBPR", "type": "cell-based", "experimental": "(YLL) followed by staining with the TCR-like mAb L1 specific for […]/HLA-A2 complexes. (6d) The MFI of L1 binding to MCF-7 cells −/+SD from three independent experiments. (6e) Bar graphs show T cell activity measured by IFN-γ secretion in fluorospot assays of a HLA-A2 restricted […] specific CD8+ T cell line when incubated with MCF-7 target cells as treated in FIG. 6b with the exception that non-fluorescent […] peptide at 100 pM was used. […] Error bars−/+SD. Note: In FIGS. 6a, 6b, & 6e IFNγ treated cells were used.\nas §1"}, "EL4 tumour cells": {"system": "EL4 tumour cells", "assay": "OT1 T cell killing of EL4 tumour cells", "type": "cell-based, murine", "conditions": "1 μM TAPBPR, 1 nM SIINFEKL", "experimental": "Histograms are representative of three independent experiments. (19d) Bar graphs show the MFI of 25-D1.16−/+SD from three independent experiments. (19e) OT1 killing of EL4 cells treated −/+1 μM soluble TAPBPR^WT or TAPBPR^TN5, followed by incubation with 1 nM […] peptide. Error bars−/+s.e.m from triplicate wells. Data is representative of three independent experiments. Note: surface expressed H-2K^b are relatively more peptide receptive compared to human MHC I molecules. […] As OT1 T cells are highly efficient cytotoxic cells, killing 80-100% of targets after 1-4 hours, we decreased the concentration of […] used in these experiments to 1 nM in order to differentiate between TAPBPR-mediated and background peptide binding, otherwise we would not observe an additive effect of soluble TAPBPR on target cell killing.\nAlthough the results above provide indication that soluble TAPBPR could be utilised to decorate target cells with immunogenic peptides and enhance T cell responses against tumours, we next determined whether this could result in enhanced killing of tumour cells. We assessed killing of murine EL4 tumour cells by OT1 T cells in the presence of human TAPBPR and very low concentrations of […] peptide."}, "EL4 cells": {"system": "EL4 cells", "assay": "Binding of soluble human TAPBPR to EL4 cells (PeTe-4)", "design": "species or system murine", "conditions": "1 μM, 15 min, 37° C."}, "HLA-A*68:02": {"target": "T4, HLA-A*68:02 (Homo sapiens, UniProt P04439, A269V/D140Y/D185E/E176V/E277Q/E87N/F33Y/G231S/I121R/I166T/I218V/L180W/L300P/L318F/N151K/P208A/P217A/Q86R/R138H/R169H/S129P/T345S/V36M)", "T4 construct": "HLA-A68 (MHC class I) expressed on HeLa; endogenous in cells; host or cells: HeLaM and derivatives (TAPBPR-KO with or without TAPBPR/tapasin constructs, +Her2, Her2-KO, +PDL1, pD-GFP); in some arms HeLaM-HLA-ABC-KO re-expressing HLA-A*68:02", "assay": "Fluorescent peptide binding to HeLaM cells treated with exogenous soluble TAPBPR", "type": "cell-based", "experimental": "Target cell lines were seeded at 25,000-30,000 cells/well in 12-well plates and stimulated with IFN-γ. Following the stimulation period, the cells were washed 3 times with 1×PBS and incubated with 300 μL pre-warmed opti-MEM (Thermo Fisher Scientific, UK). In case the peptide binding was done in the presence of recombinant TAPBPR, the cells were then treated with or without recombinant TAPBPR (100 nM for HLA-A*68:02 or 1 μM for HLA-A*02:01). After 15 min, the desired TAMRA-labelled peptide was added to the cells and incubated at 37° C. (15 min for HLA-A*68:02 or 60 min for HLA-A*02:01). In case the peptide binding was facilitated by over-expressed TAPBPR, the labelled peptide was directly added to the cells, without using recombinant TAPBPR. Following the peptide treatment, the cells were washed three times in 1×PBS and harvested. The level of bound peptide/cell was determined by flow cytometry, using the YelFL1 channel (Cytek).\nWe next asked whether the exogenous TAPBPR bound to surface MHC class I molecules was capable of peptide exchange similarly to the membrane anchored version. Following incubation of cells for 15 min at 37° C. in the presence or absence of 100 nM exogenous TAPBPR, cells were treated with or without 10 nM fluorescent peptide for an additional 15 mins."}, "Her2": {"target": "T5, Her2 (Homo sapiens, UniProt P04626)", "T5 construct": "HeLaM cells which naturally express Her2; endogenous in cells; host or cells: HeLaM, HeLaM+Her2 (over-expressing), HeLaM-Her2-KO (negative control)", "assay": "Binding of recombinant TAPBPR proteins to HeLaM, HeLaM+Her2 and HeLaM^Her2KO cells", "conditions": "100 nM recombinant protein", "description": "Histograms show the level of TAPBPR when the two cell lines were incubated with 100 nM protein while bar graphs summarise results using a range of concentrations of protein (0.001-100 nM). […] Each bar represents mean and standard deviation of three independent experiments.\nEach bar represents mean and standard deviation of three independent experiments."}}}
{"molecule": "B1", "values": [{"measurement": "dissociation of TAPBPR from cells after peptide binding", "setting": "surface MHC I molecules", "value": "dissociate from cells upon high affinity peptide binding"}, {"measurement": "binding of peptides specific for other MHC class I molecules onto HLA-A2", "setting": "HLA-A*02:01", "value": "did not promote the binding"}, {"measurement": "loading of fluorescent derivatives of tumour antigens IMDQVPFSV, […], LLGRNSFEV and RLLQETELV", "setting": "[1]; 1 μM TAPBPR 15 min, 10 nM peptide 60 min", "value": "significantly enhanced the loading"}, {"measurement": "association of YLLEK*LWRL and NLVPK*VATV onto HLA-A2", "setting": "[1]; versus peptide alone or TAPBPR^TN5", "value": "enhanced the association"}, {"measurement": "OT1 cytotoxic T cell killing of peptide-pulsed EL4 target cells", "setting": "EL4 tumour cells", "value": "significant enhancement in killing"}, {"measurement": "binding to EL4 cells", "setting": "EL4 cells", "value": "bound to EL4 cells"}, {"measurement": "binding of exogenous fluorescent peptides ETVSK*QSNV and YVVPKVAK*V to HeLaM", "setting": "HLA-A*68:02; 100 nM exogenous TAPBPR 15 min, then 10 nM peptide 15 min", "value": "significant enhancement in the binding of exogenous fluorescent peptides"}, {"measurement": "exogenous peptide binding over increasing ETVSK*QSNV concentrations", "setting": "HLA-A*68:02; -/+100 nM TAPBPR, 15 min", "value": "enhanced exogenous peptide binding to cells over a wide range of peptide concentrations"}, {"measurement": "binding to Her2-deficient HeLaM cells", "setting": "Her2", "value": "still capable of binding"}]}
